Experiments:
[1] = target: T1, human IGSF11 (VSIG3) on cells (human, UniProt Q5DX21 23-431); test: FACS % positive cells, scFv
T1 sequence: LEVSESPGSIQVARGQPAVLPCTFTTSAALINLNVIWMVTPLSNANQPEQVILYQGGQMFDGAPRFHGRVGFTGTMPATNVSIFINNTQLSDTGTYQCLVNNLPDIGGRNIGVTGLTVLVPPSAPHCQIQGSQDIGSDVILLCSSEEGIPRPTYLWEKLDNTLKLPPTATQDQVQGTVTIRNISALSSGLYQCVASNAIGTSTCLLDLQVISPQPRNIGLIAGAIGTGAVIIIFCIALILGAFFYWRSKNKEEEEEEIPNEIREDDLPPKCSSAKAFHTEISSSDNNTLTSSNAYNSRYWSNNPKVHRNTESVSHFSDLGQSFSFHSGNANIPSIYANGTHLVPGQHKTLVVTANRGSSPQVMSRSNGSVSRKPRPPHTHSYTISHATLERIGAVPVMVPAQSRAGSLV

Streptavidin [2] = target: T2, Streptavidin (UniProt P22629 37-163, limits assumed); test: ELISA, scFv
T2 construct: also called negative antigen; irrelevant antigen
T2 sequence (P22629 37-163 limits assumed): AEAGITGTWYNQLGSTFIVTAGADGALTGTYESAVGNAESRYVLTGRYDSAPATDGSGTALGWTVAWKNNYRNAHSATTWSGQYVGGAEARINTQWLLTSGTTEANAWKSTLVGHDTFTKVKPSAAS

[3] = target: T3, recombinant murine IGSF11 extracellular domain (ECD) (mouse, UniProt P0C673 23-240, biotinylated); test: ELISA, Fab
T3 construct: also called Mouse IGSF11; murine ECD-IGSF11
T3 sequence: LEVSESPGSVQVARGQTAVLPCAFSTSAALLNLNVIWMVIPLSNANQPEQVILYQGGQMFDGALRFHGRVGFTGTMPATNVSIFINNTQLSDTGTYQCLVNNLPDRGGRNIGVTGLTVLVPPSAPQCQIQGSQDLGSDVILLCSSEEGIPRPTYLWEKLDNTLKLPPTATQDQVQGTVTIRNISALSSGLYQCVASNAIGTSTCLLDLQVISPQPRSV

Streptavidin [4] = target: T2, Streptavidin; test: ELISA, Fab

B1: A-030 (scFv format) (scFv, V domains shown)
VH: QVQLVQSGAEVKKPGASVKVSCKASGYTFTGYYMHWVRQAPGQGLEWMGWINPNSGNTGYAQKFQGRVTMTRNTSISTAYMELSSLRSEDTAVYYCARGGQQQLVLDDYWGQGTLVTVSS
VL: DIQLTQSPSTLSASVGDRVTITCRASQSIGGWLAWYQHKPGKAPKLLIYAASSLQSGVPSRFSGSGSGTDFTLTISSLQPEDFATYYCRQSYSTPPTFGQGTKVEIK
notes: scFv
- binding result [1]: binds
- binding result (Streptavidin [2]): no binding (tested: <0.025 or <0.05 RFU)

B2: A-036 (scFv format) (scFv, V domains shown)
VH: QVQLVQSGAEVKKPGASVKVSCKASGYTFTGYYMHWVRQAPGQGLEWMGWINPNSGGTNYAQKFQGRVTMTRNTSISTAYMELSSLRSEDTAVYYCARGGQQQLVLDDYWGQGTLVTVSS
VL: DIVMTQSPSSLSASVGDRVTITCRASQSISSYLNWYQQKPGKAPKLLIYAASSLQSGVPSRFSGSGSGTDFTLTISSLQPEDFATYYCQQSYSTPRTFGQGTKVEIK
notes: scFv
- binding result [1]: binds
- binding result (Streptavidin [2]): no binding (tested: <0.025 or <0.05 RFU)

B3: A-031 (scFv format) (scFv, V domains shown)
VH: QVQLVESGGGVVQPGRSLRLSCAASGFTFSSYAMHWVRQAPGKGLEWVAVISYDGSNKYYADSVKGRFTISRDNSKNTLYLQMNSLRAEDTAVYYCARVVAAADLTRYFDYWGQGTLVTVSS
VL: EIVLTQSPGTVSLSPGERATLSCRASQSVPKNYLAWFQQKPGQAPRLVIHTASSRAPGIPDRFTGSGSGTDFTLTISRLEPEDFAVYYCQQYGTSPNTFGQGTKLDIK
notes: scFv
- binding result [1]: binds
- binding result (Streptavidin [2]): no binding (tested: <0.025 or <0.05 RFU)

B4: A-032 (scFv format) (scFv, V domains shown)
VH: QVQLVQSGAEVKKPGASVKVSCKASGYTFTGYYMHWVRQAPGQGLEWMGWMNPNSGNTGYAQKFQGRVTMTRNTSISTAYMELSSLRSEDTAVYYCARGGQQQLVLDDYWGQGTLVTVSS
VL: not shown
- binding result [1]: binds
- binding result (Streptavidin [2]): no binding (tested: <0.025 or <0.05 RFU)

B5: A-037 (scFv format) (scFv, V domains shown)
VH: QVQLVQSGAEVKKPGASVKVSCKASGYTFTGYYMHWVRQAPGQGLEWMGWINPNSGNTGYAQKFQGRVTMTRNTSISTAYMELSSLRSEDTAVYYCARGGQQQLVLDDYWGQGTLVTVSS
VL: NFMLTQPHSVSESPGKTVTISCTGSSGSIASNYVQWYQQRPGSAPTTVIYEDNQRPSGVPDRFSGSIDSSSNSASLTISGLKTEDEADYYCQSYDSSNQRVFGGGTKLTVL
notes: scFv
- binding result [1]: binds
- binding result (Streptavidin [2]): no binding (tested: <0.025 or <0.05 RFU)

B6: C-016 (Fab format) (Fab, V domains shown)
VH: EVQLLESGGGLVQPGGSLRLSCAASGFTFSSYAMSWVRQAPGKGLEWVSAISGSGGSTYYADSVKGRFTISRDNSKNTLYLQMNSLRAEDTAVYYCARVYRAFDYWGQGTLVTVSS
VL: ASVLTQPPSVSAAPGQKVTISCSGSSSNIGNNYVSWYQQLPGTAPKLLIYDNNKRPSGIPDRFSGSKSGTSATLGITGLQAEDEADYYCHLYTEAESHWVFGGGTKLTVL
notes: Fab in E. coli lysate
- A450 [3]: < 1
- A450 (Streptavidin [4]): < 0.1

B7: C-002 (Fab format) (Fab, V domains shown)
VH: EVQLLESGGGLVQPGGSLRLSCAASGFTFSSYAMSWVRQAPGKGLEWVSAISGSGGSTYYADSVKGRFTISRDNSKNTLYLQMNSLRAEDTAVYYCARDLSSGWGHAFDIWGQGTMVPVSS
VL: ASVLTQPPSVSAAPGQKVTISCSGSSSNIGNNYVSWYQQLPGTAPKLLIYDNNKRPSGIPDRFSGSKSGTSATLGITGLQAEDEADYYCLSYTTSEHHLVFGGGTKLTVL
notes: Fab in E. coli lysate
- A450 [3]: < 1
- A450 (Streptavidin [4]): < 0.1

B8: C-005 (Fab format) (Fab, V domains shown)
VH: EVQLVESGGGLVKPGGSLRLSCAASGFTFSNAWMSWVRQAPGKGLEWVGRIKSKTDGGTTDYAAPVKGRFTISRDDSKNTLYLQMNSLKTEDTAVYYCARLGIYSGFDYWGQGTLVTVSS
VL: SYELTQPPSVSVSPGQTASITCSGDKLGDKYASWYQQKPGQSPVLVIYQDSKRPSGIPERFSGSNSGNTATLTISGTQAEDEADYYCHSYTGKPSQVVFGGGTKLTVL
notes: Fab in E. coli lysate
- A450 (Streptavidin [4]): < 0.1

B9: C-020 (Fab format) (Fab, V domains shown)
VH: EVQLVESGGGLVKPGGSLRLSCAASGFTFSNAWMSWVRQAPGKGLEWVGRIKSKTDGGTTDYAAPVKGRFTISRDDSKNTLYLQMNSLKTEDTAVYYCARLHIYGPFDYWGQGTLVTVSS
VL: SYELTQPPSVSVSPGQTASITCSGDKLGDKYASWYQQKPGQSPVLVIYQDSKRPSGIPERFSGSNSGNTATLTISGTQAEDEADYYCLSYLARSGSVVFGGGTKLTVL
notes: Fab in E. coli lysate
- A450 [3]: < 1

B10: C-023 (Fab format) (Fab, V domains shown)
VH: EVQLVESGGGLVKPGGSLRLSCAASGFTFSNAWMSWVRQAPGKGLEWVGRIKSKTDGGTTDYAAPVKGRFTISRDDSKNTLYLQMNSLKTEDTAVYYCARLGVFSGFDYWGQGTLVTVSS
VL: SYELTQPPSVSVSPGQTASITCSGDKLGDKYASWYQQKPGQSPVLVIYQDSKRPSGIPERFSGSNSGNTATLTISGTQAEDEADYYCHTWTHHSLAVVFGGGTKLTVL
notes: Fab in E. coli lysate
- A450 [3]: < 1
- A450 (Streptavidin [4]): < 0.1

B11: C-008 (Fab format) (Fab, V domains shown)
VH: EVQLLESGGGLVQPGGSLRLSCAASGFTFSSYAMSWVRQAPGKGLEWVSAISGSGGSTYYADSVKGRFTISRDNSKNTLYLQMNSLRAEDTAVYYCTTDNGHNRDWGQGTLVTVSS
VL: ASVLTQPPSVSAAPGQKVTISCSGSSSNIGNNYVSWYQQLPGTAPKLLIYDNNKRPSGIPDRFSGSKSGTSATLGITGLQAEDEADYYCGTWTRSSGVFGGGTKLTVL
notes: Fab in E. coli lysate
- A450 (Streptavidin [4]): < 0.1

B12: C-009 (Fab format) (Fab, V domains shown)
VH: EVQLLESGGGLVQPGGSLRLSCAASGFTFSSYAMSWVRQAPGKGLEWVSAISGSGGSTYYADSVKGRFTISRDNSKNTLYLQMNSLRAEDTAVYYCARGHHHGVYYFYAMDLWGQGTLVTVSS
VL: SYELTQPPSVSVSPGQTASITCSGDKLGDKYASWYQQKPGQSPVLVIYQDSKRPSGIPERFSGSNSGNTATLTISGTQAEDEADYYCQSYSGSSTLHVFGGGTKLTVL
notes: Fab in E. coli lysate
- A450 (Streptavidin [4]): < 0.1

B13: C-015 (Fab format) (Fab, V domains shown)
VH: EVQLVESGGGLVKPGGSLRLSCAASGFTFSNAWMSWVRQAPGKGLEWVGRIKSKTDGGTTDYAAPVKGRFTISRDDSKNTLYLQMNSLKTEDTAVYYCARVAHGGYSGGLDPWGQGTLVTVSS
VL: SYELTQPPSVSVSPGQTASITCSGDKLGDKYASWYQQKPGQSPVLVIYQDSKRPSGIPERFSGSNSGNTATLTISGTQAEDEADYYCSSTGTAHTLAVFGGGTKLTVL
notes: Fab in E. coli lysate
- A450 [3]: < 1
- A450 (Streptavidin [4]): < 0.1

B14: C-017 (Fab format) (Fab, V domains shown)
VH: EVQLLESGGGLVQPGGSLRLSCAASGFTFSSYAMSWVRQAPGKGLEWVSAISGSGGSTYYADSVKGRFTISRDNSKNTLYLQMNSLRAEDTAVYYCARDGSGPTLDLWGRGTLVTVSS
VL: DIQMTQSPSSLSASVGDRVTITCRASQSISSYLNWYQQKPGKAPKLLIYAASSLQSGVPSRFSGSGSGTDFTLTISSLQPEDFATYYCQQHRYIPPWTFGQGTKVEIK
notes: Fab in E. coli lysate
- A450 [3]: < 1

B15: C-021 (Fab format) (Fab, V domains shown)
VH: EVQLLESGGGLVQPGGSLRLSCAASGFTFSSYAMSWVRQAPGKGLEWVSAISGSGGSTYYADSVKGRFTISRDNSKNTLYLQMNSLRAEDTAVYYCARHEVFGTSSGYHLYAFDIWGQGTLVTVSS
VL: DIQMTQSPSSLSASVGDRVTITCRASQSISSYLNWYQQKPGKAPKLLIYAASSLQSGVPSRFSGSGSGTDFTLTISSLQPEDFATYYCQQWSGLPLTFGQGTKVEIK
notes: Fab in E. coli lysate
- A450 [3]: < 1
- A450 (Streptavidin [4]): < 0.1

B16: C-022 (Fab format) (Fab, V domains shown)
VH: EVQLLESGGGLVQPGGSLRLSCAASGFTFSSYAMSWVRQAPGKGLEWVSAISGSGGSTYYADSVKGRFTISRDNSKNTLYLQMNSLRAEDTAAYYCARMAAGASWGTFDYWSQGTLVTVSS
VL: DIQMTQSPSSLSASVGDRVTITCRASQSISSYLNWYQQKPGKAPKLLIYAASSLQSGVPSRFSGSGSGTDFTLTISSLQPEDFATYYCQQRSGSPLTFGQGTKVEIK
notes: Fab in E. coli lysate
- A450 (Streptavidin [4]): < 0.1

B17: C-024 (Fab format) (Fab, V domains shown)
VH: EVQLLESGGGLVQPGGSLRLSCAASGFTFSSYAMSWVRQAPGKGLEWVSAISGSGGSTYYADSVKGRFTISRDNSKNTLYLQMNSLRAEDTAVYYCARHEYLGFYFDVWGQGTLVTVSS
VL: SYELTQPPSVSVSPGQTASITCSGDKLGDKYASWYQQKPGQSPVLVIYQDSKRPSGIPERFSGSNSGNTATLTISGTQAEDEADYYCLASHRLTLNYVFGGGTKLTVL
notes: Fab in E. coli lysate
- A450 [3]: < 1

B18: A-014 (scFv format) (scFv, V domains shown)
VH: QVQLVQSGAEVKKPGASVKVSCKASGYTFNDYYIHWVRQAPGQGLEWMGWFNPSTGGANYAQKFQGRVTMTRDTSISTAYLEVSSLRSDDTAVYYCARGNSPDLDYWGQGTLVTVSS
VL: DIQMTQSPDSLTVSLGERATINCKSSQSLLHSSNNKNYLAWYQQRPGQPPKLLIYWASTRQSGVPDRFSGSGSGTDFTLTINSLQADDMAVYYCQQYYTTTPNTFGQGTKLEIK
notes: scFv
- binding result [1]: binds
- binding result (Streptavidin [2]): no binding (tested: <0.025 or <0.05 RFU)

B19: C-026 (Fab format) (Fab, V domains shown)
VH: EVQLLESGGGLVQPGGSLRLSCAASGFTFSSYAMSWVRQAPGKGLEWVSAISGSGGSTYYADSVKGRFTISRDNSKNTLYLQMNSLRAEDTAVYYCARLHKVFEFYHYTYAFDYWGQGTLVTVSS
VL: ASVLTQPPSVSAAPGQKVTISCSGSSSNIGNNYVSWYQQLPGTAPKLLIYDNNKRPSGIPDRFSGSKSGTSATLGITGLQAEDEADYYCASYSSETSGWVFGGGTKLTVL
notes: Fab in E. coli lysate
- A450 (Streptavidin [4]): < 0.1

B20: A-017 (scFv format) (scFv, V domains shown)
VH: QVQLVQSGAEVKKPGASVKVSCKASGYTFTGYYMHWVRQAPGQGLEWMGWINPNSGNTGYAQKFQGRVTMTRNTSISTAYMELSSLRSEDTAVYYCARGGQQQLVLDDYWGQGTLVTVSS
VL: DIVLTQSPASLSASVGDRITITCQASQDIRHHLNWFQHKPGKAPKLLISDSSNLETGVPSRFSGSGSGTDFSFTISRLQPEDIATYYCQQYDSLPRTFGQGTKLEIK
notes: scFv
- binding result [1]: binds
- binding result (Streptavidin [2]): no binding (tested: <0.025 or <0.05 RFU)

B21: A-019 (scFv format) (scFv, V domains shown)
VH: QVQLVQSGAEVKKPGASVKVSCKASGYTFTGYYMHWVRQAPGQGLEWMGWINPNSGNTGYAQKFQGRVTMTRNTSISTAYMELSSLRSEDTAVYYCARGGQQQLVLDDYWGQGTLVTVSS
VL: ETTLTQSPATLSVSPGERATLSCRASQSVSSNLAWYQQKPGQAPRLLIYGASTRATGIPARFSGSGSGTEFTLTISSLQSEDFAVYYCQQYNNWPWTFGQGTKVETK
notes: scFv
- binding result [1]: binds
- binding result (Streptavidin [2]): no binding (tested: <0.025 or <0.05 RFU)

B22: A-021 (scFv format) (scFv, V domains shown)
VH: QVQLVQSGAEVKKPGASVKVSCKASGYTFTSYGISWVRQAPGQGLEWMGWISAYNGNTNYAQKLQGRVTMTTDTSTSTAYMELRSLRSDDTAVYYCARVPAWSGQFDYWGQGTLVTVSS
VL: QSALTQPASVSGSPGQSITISCTGTSSDVGGYNYVSWYQQHPGKAPKLMIYEVTNRPSGVSDRFSGSKSANTASLTISELQAEDEAVYYCNSYTSGPTYVLFGGGTQLTVL
notes: scFv
- binding result [1]: binds
- binding result (Streptavidin [2]): no binding (tested: <0.025 or <0.05 RFU)

B23: A-028 (scFv format) (scFv, V domains shown)
VH: QVQLVQSGAEVKKPGSSVKVSCKASGGTFSSYAISWVRQAPGQGLEWMGGIIPIFGTANYAQKFQGRVTITADESTSTAYMELSSLRSEDTAVYYCARVGVEYQLLWYFDYWGQGTLVTVSS
VL: DIQMTQSPSSLSASVGDRVTLTCRTSQTISNYLNWYQQKPGKAPKLLVYAASNLQSWVPSRFSGSGSGTDFTLTISSLQPEDFATYYCQQSYNASFGGGTKVEFK
notes: scFv
- binding result [1]: binds
- binding result (Streptavidin [2]): no binding (tested: <0.025 or <0.05 RFU)
